From patent US20250197838A1, “UROKINASE-TYPE PLASMINOGEN ACTIVATOR RECEPTOR BINDING PEPTIDES AND METHODS OF USE” (The United States Government as represented by the …, priority 2022, published 2025)

How the values were obtained:
uPAR [1] = target: T1, uPAR (Homo sapiens, UniProt Q03405); experiment: Hydroxyl radical footprinting (HRF) with LC-MS: free FXII vs FXII in complex with uPAR; assay type: binding
Experimental: Briefly, free uPAR and human FXII protein samples were prepared with the final protein concentration of 2.5 μM and 3 μM, respectively (1:1.2 uPAR: FXII molar ratio). Free uPAR and FXII and FXII-uPAR complex were exposed to hydroxyl radicals for intervals of 0, 12, 20, and 40 milliseconds using the X-ray beam line. Next, the irradiated samples were reduced and alkylated with 10 mM and 25 mM of DTT and iodoacetamide, respectively. Subsequently, the samples were subjected to a trypsin and AspN digestion (1:10 enzyme to protein ratio) followed by liquid chromatography coupled with high-resolution mass spectrometry (LC-MS). The MS data were analyzed manually resulting in dose-response plots for each peptide. The HRF process introduces stable side chain oxidative modifications resulting in specific mass shifts, which were identified from the tandem mass spectrometry data. The selected ion chromatograms (SIC) were extracted and integrated for the un-oxidized and the oxidized forms of peptide ion (with particular m z). These peak area values were used to characterize reaction kinetics in the form of dose-response (DR) plots, which measure the loss of intact peptide as a function of the hydroxyl radical exposure. […] Differences in the rate of oxidation (called rate constant, RC) indicate the potential locations of the binding interface. MSI data for free and complex proteins were used to determine RC values for each peptide within the protein. Peptide location and the corresponding sequence are shown in columns 1 and 2, respectively. The third and fourth columns show the RC values for the free FXII protein and complex, respectively. The RC values were averaged from replicate experiments and the associated errors are shown next to each RC value.
Target sequence in this assay (Q03405 23-305 limits assumed): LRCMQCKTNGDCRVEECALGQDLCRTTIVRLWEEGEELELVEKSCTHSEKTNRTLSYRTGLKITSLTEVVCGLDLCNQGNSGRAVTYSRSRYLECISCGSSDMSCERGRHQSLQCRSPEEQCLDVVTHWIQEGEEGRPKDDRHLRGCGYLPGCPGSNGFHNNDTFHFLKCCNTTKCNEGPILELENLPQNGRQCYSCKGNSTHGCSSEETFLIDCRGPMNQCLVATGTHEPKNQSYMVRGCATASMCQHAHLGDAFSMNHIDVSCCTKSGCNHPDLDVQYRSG

FXII-uPAR binding = FXII-uPAR binding (Homo sapiens, UniProt Q03405); experiment: Microscale thermophoresis of FXII-uPAR binding in absence or presence of FXII-derived inhibitory peptides; details: FIG. 2A
FXII-uPAR binding, sequence (Q03405 23-305 limits assumed): as above
Experimental: FIGS. 2A-D show the characterization of FXII-derived inhibitory peptides. […] FXII_fl: recombinant full length FXII: Combo: combination of IPP-DLA-LHV peptides, 10 μM each. * p=0.004 FXII_fl vs. Combo, 2-way ANOVA.
The results provide insight on the structure of the non-catalytic region of FXII. These advances have also provided the structural details required to develop peptide antagonists. To this end, 3 peptides containing FXII amino acid residues implicated in uPAR binding were synthesized and termed “IPP” (corresponding to SEQ ID NO: 1), “DLA” (corresponding to SEQ ID NO: 2), and “LHV” (corresponding to SEQ ID NO: 3). The kinetics of peptide interference with FXII-uPAR binding was screened which yielded nanomolar affinity for each (FIG. 2A).

[2] = target: T2, urokinase-type plasminogen activator receptor (uPAR; Plaur, Homo sapiens) (Homo sapiens, UniProt Q03405 23-305, limits assumed); experiment: peptide interference with FXII-uPAR binding, microscale thermophoresis
T2 construct: also called human uPAR; human soluble uPAR
T2 sequence (Q03405 23-305 limits assumed): as above

uPAR [3] = target: T1, uPAR; experiment: Microscale thermophoresis of uPAR binding on site-directed FXII mutants (Ala substitutions); details: FIG. 1D
From the text: FIGS. 1A-D show the characterization of the FXII-uPAR binding interphase.
Each variant was characterized in several assays including microscale thermophoresis. […] These findings explain, at least in part, why the FXII-uPAR interaction is not a constitutive process in vivo.
Target sequence in this assay (Q03405 23-305): as the sequence (Q03405 23-305 limits assumed) above

LHVPLMPAQPAPPK [listing 1 of 2 here]
Modification rate, KFXII, S^−1 FXII free (uPAR [1]; site H293, FXII position 292-305): 2.55 ± 0.30 S^−1 | Modification rate, KCOM, S^−1 FXII complex (uPAR [1]; site H293, FXII position 292-305, complex with human uPAR): 1.82 ± 0.15 S^−1 | Modification rate, KFXII, S^−1 FXII free (uPAR [1]; site K305, FXII position 292-305): 1.06 ± 0.063 S^−1 | Modification rate, KCOM, S^−1 FXII complex (uPAR [1]; site K305, FXII position 292-305, complex with human uPAR): 0.58 ± 0.042 S^−1 | Modification rate, KFXII, S^−1 FXII free (uPAR [1]; site L296, FXII position 292-305): 0.62 ± 0.054 S^−1 | Modification rate, KCOM, S^−1 FXII complex (uPAR [1]; site L296, FXII position 292-305, complex with human uPAR): 0.29 ± 0.057 S^−1 | Modification rate, KFXII, S^−1 FXII free (uPAR [1]; site V294, FXII position 292-305): 0.85 ± 0.093 S^−1 | Modification rate, KCOM, S^−1 FXII complex (uPAR [1]; site V294, FXII position 292-305, complex with human uPAR): 0.79 ± 0.078 S^−1

LHVPLMPAQPAPPK [listing 2 of 2 here]
affinity, peptide interference with FXII-uPAR binding (FXII-uPAR binding): nanomolar

DLAQCQTPTQAAPPTPVSPR [listing 1 of 2 here]
Modification rate, KFXII, S^−1 FXII free (uPAR [1]; site P285, FXII position 272-291): 1.3 ± 0.061 S^−1 | Modification rate, KCOM, S^−1 FXII complex (uPAR [1]; site P285, FXII position 272-291, complex with human uPAR): 0.87 ± 0.030 S^−1 | Modification rate, KFXII, S^−1 FXII free (uPAR [1]; site P287, FXII position 272-291): 0.23 ± 0.021 S^−1 | Modification rate, KCOM, S^−1 FXII complex (uPAR [1]; site P287, FXII position 272-291, complex with human uPAR): 0.11 ± 0.009 S^−1 | Modification rate, KFXII, S^−1 FXII free (uPAR [1]; site Q281, FXII position 272-291): 0.97 ± 0.047 S^−1 | Modification rate, KCOM, S^−1 FXII complex (uPAR [1]; site Q281, FXII position 272-291, complex with human uPAR): 0.53 ± 0.019 S^−1 | Modification rate, KFXII, S^−1 FXII free (uPAR [1]; site V288, FXII position 272-291): 0.71 ± 0.04 S^−1 | Modification rate, KCOM, S^−1 FXII complex (uPAR [1]; site V288, FXII position 272-291, complex with human uPAR): 0.46 ± 0.019 S^−1

IPPWEAPK [listing 1 of 2 here]
Modification rate, KFXII, S^−1 FXII free (uPAR [1]; site W4, FXII position 1-8): 3.08 ± 0.25 S^−1 | Modification rate, KCOM, S^−1 FXII complex (uPAR [1]; site W4, FXII position 1-8, complex with human uPAR): 3.08 ± 0.13 S^−1

DLAQCQTPTQAAPPTPVSPR [listing 2 of 2 here]
affinity, peptide interference with FXII-uPAR binding (FXII-uPAR binding): nanomolar

IPPWEAPK [listing 2 of 2 here]
affinity, peptide interference with FXII-uPAR binding (FXII-uPAR binding): nanomolar

IPPWEAPK (Synthesized FXII-derived peptide) [IPP peptide (IPPWEAPK)]
binding result [2]: binds

LHVPLMPAQPAPPK (Synthesized FXII-derived peptide) [LHV peptide (LHVPLMPAQPAPPK)]
binding result [2]: binds

DLAQCQTPTQAAPPTPVSPR (Synthesized FXII-derived peptide) [DLA peptide (DLAQCQTPTQAAPPTPVSPR)]
binding result [2]: binds

B1: W4A variant: zymogen FXII with single Ala substitution of W residue at position 4 (protein)
chain: IPPAEAPKEHKYKAEEHTVVLTVTGEPCHFPFQYHRQLYHKCTHKGRPGPQPWCATTPNFDQDQRWGYCLEPKKVKDHCSKHSPCQKGGTCVNMPSGPHCLCPQHLTGNHCQKEKCFEPQLLRFFHKNEIWYRTEQAAVARCQCKGPDAHCQRLASQACRTNPCLHGGRCLEVEGHRLCHCPVGYTGAFCDVDTKASCYDGRGLSYRGLARTTLSGAPCQPWASEATYRNVTAEQARNWGLGGHAFCRNPDNDIRPWCFVLNRDRLSWEYCDLAQCQTPTQAAPPTPVSPRLHVPLMPAQPAPPKPQPTTRTPPQSQTPGALPAKREQPPSLTRNGPLSCGQRLRKSLSSMTRVVGGLVALRGAHPYIAALYWGHSFCAGSLIAPCWVLTAAHCLQDRPAPEDLTVVLGQERRNHSCEPCQTLAVRSYRLHEAFSPVSYQHDLALLRLQEDADGSCALLSPYVQPVCLPSGAARPSETTLCQVAGWGHQFEGAEEYASFLQEAQVPFLSLERCSAPDVHGSSILPGMLCAGFLEGGTDACQGDSGGPLVCEDQAAERRLTLQGIISWGSGCGDRNKPGVYTDVAYYLAWIREHTVS
FXII-uPAR binding of FXII variant (uPAR [3]): significantly reduced
